The values below come from the RNAGym collection of RNA variant scans (doi:10.7554/elife.80360).

To fix the notation:
B1: Hammerhead Ribozyme (parent)
chain: ACCGGAUGUGCUUUCCGGUCUGAUGAGUCCGUGAGGACGAAACAG

Variants of B1 are the subject of this data set. Nature of the data set: self-cleavage, relative activity (ratio to wild type); higher = more cleavage; co-transcriptional.
Take ACCGGAUGUGCUUUCCGGUCUGAUGUGUCCGUGAGGACAAAACAG [A26U G39A]: the self-cleavage is 0.366.
The same measure for ACCGGAUGUGCUUUCCGGUCUGAUGUGUCCGUGAGGACUAAACAG [A26U G39U]: 0.296; for ACCGGAUGUGCUUUCCGGUCUGAUGAAUCCGUGACGACGAAACAG [G27A G35C]: 0.438.
Turning to ACCGGAUGUGCUUUCCGGUCUGAUGAAUCCGUGAUGACGAAACAG [G27A G35U], the self-cleavage amounted to 0.411.
On to ACCGGAUGUGCUUUCCGGUCUGAUGAAUCCGUGAAGACGAAACAG [G27A G35A], for which the self-cleavage was 0.505.
The result for ACCGGAUGUGCUUUCCGGUCUGAUGAAUCCGCGAGGACGAAACAG [G27A U32C] reads 0.803.
The result for ACCGGAUGUGCUUUCCGGUCUGAUGAAUCCGAGAGGACGAAACAG [G27A U32A] reads 0.736; that for ACCGGAUGUGCUUUCCGGUCUGAUGAAUCCGGGAGGACGAAACAG [G27A U32G], 0.628.
For ACCGGAUGUGCUUUCCGGUCUGAUGUGUCCGUUAGGACGAAACAG [A26U G33U], the self-cleavage was found to be 0.659.
For ACCGGAUGUGCUUUCCGGUCUGAUGUGUCCGUAAGGACGAAACAG [A26U G33A], the self-cleavage came out at 0.961.
Regarding ACCGGAUGUGCUUUCCGGUCUGAUGUGUCCGUCAGGACGAAACAG [A26U G33C], the self-cleavage amounted to 0.546.
In the case of ACCGGAUGUGCUUUCCGGUCUGAUGUGUCCGUGAGGACGAUACAG [A26U A41U], the self-cleavage was 0.29.
On to ACCGGAUGUGCUUUCCGGUCUGAUGUGUCCGUGAGGACGAGACAG [A26U A41G], for which the self-cleavage was 0.434.
With ACCGGAUGUGCUUUCCGGUCUGAUGUGUCCGUGAGGACGACACAG [A26U A41C], the self-cleavage amounted to 0.295.
The result for ACCGGAUGUGCUUUCCGGUCUGAUGUAUCCGUGAGGACGAAACAG [A26U G27A] reads 0.518.
The result for ACCGGAUGUGCUUUCCGGUCUGAUGUUUCCGUGAGGACGAAACAG [A26U G27U] reads 0.315; that for ACCGGAUGUGCUUUCCGGUCUGAUGUCUCCGUGAGGACGAAACAG [A26U G27C], 0.317; that for ACCGGAUGUGCUUUCCGGUCUGAUGAAUGCGUGAGGACGAAACAG [G27A C29G], 0.412.
For ACCGGAUGUGCUUUCCGGUCUGAUGAAUACGUGAGGACGAAACAG [G27A C29A], the self-cleavage stood at 0.42.
The result for ACCGGAUGUGCUUUCCGGUCUGAUGAAUUCGUGAGGACGAAACAG [G27A C29U] reads 0.598; that for ACCGGAUGUGCUUUCCGGUCUGAUGUGUCCGUGGGGACGAAACAG [A26U A34G], 0.482.
As to ACCGGAUGUGCUUUCCGGUCUGAUGUGUCCGUGUGGACGAAACAG [A26U A34U], the self-cleavage is 0.584.
The same measure for ACCGGAUGUGCUUUCCGGUCUGAUGUGUCCGUGCGGACGAAACAG [A26U A34C]: 0.355.
The result for ACCGGAUGUGCUUUCCGGUCUGAUGAAUCCGUGAGGACUAAACAG [G27A G39U] reads 0.348.
The same measure for ACCGGAUGUGCUUUCCGGUCUGAUGAAUCCGUGAGGACAAAACAG [G27A G39A]: 0.247.
ACCGGAUGUGCUUUCCGGUCUGAUGAAUCCGUGAGGACCAAACAG [G27A G39C]: the self-cleavage was found to be 0.285.
The same measure for ACCGGAUGUGCUUUCCGGUCUGAUGUGUCCGUGAGGAGGAAACAG [A26U C38G]: 0.318.
The result for ACCGGAUGUGCUUUCCGGUCUGAUGUGUCCGUGAGGAUGAAACAG [A26U C38U] reads 0.783; that for ACCGGAUGUGCUUUCCGGUCUGAUGUGUCCGUGAGGAAGAAACAG [A26U C38A], 0.6.
The result for ACCGGAUGUGCUUUCCGGUCUGAUGUGUCCGUGAGGACGAAACAU [A26U G45U] reads 0.476; that for ACCGGAUGUGCUUUCCGGUCUGAUGUGUCCGUGAGGACGAAACAA [A26U G45A], 0.359; that for ACCGGAUGUGCUUUCCGGUCUGAUGUGUCCGUGAGGACGAAACAC [A26U G45C], 0.362.
Turning to ACCGGAUGUGCUUUCCGGUCUGAUGAAUCCGUGAGGACGAAGCAG [G27A A42G], the self-cleavage turned out to be 0.321.
As for ACCGGAUGUGCUUUCCGGUCUGAUGAAUCCGUGAGGACGAACCAG [G27A A42C], the self-cleavage was 0.308.
The result for ACCGGAUGUGCUUUCCGGUCUGAUGAAUCCGUGAGGACGAAUCAG [G27A A42U] reads 0.301.
The result for ACCGGAUGUGCUUUCCGGUCUGAUGUGUGCGUGAGGACGAAACAG [A26U C29G] reads 0.475; that for ACCGGAUGUGCUUUCCGGUCUGAUGUGUUCGUGAGGACGAAACAG [A26U C29U], 0.598.
Regarding ACCGGAUGUGCUUUCCGGUCUGAUGUGUACGUGAGGACGAAACAG [A26U C29A], the self-cleavage worked out at 0.311.
The same measure for ACCGGAUGUGCUUUCCGGUCUGAUGUGUCCGUGAGUACGAAACAG [A26U G36U]: 0.446; for ACCGGAUGUGCUUUCCGGUCUGAUGUGUCCGUGAGAACGAAACAG [A26U G36A]: 0.458.
The result for ACCGGAUGUGCUUUCCGGUCUGAUGUGUCCGUGAGCACGAAACAG [A26U G36C] reads 0.265.
The same measure for ACCGGAUGUGCUUUCCGGUCUGAUGAAUCUGUGAGGACGAAACAG [G27A C30U]: 0.69.
Regarding ACCGGAUGUGCUUUCCGGUCUGAUGAAUCAGUGAGGACGAAACAG [G27A C30A], the self-cleavage was 0.529.
Regarding ACCGGAUGUGCUUUCCGGUCUGAUGAAUCGGUGAGGACGAAACAG [G27A C30G], the self-cleavage turned out to be 0.458.
The same measure for ACCGGAUGUGCUUUCCGGUCUGAUGAAUCCGUGAGGACGAAAAAG [G27A C43A]: 0.347.
The same measure for ACCGGAUGUGCUUUCCGGUCUGAUGAAUCCGUGAGGACGAAAGAG [G27A C43G]: 0.415; for ACCGGAUGUGCUUUCCGGUCUGAUGAAUCCGUGAGGACGAAAUAG [G27A C43U]: 0.33; for ACCGGAUGUGCUUUCCGGUCUGAUGUGUCCGUGACGACGAAACAG [A26U G35C]: 0.377.
The same measure for ACCGGAUGUGCUUUCCGGUCUGAUGUGUCCGUGAUGACGAAACAG [A26U G35U]: 0.491; for ACCGGAUGUGCUUUCCGGUCUGAUGUGUCCGUGAAGACGAAACAG [A26U G35A]: 0.52; for ACCGGAUGUGCUUUCCGGUCUGAUGGGUCCGGGAGGACGAAACAG [A26G U32G]: 0.412.
As for ACCGGAUGUGCUUUCCGGUCUGAUGAAUCCGUGAGGACGAAACAU [G27A G45U], the self-cleavage is 0.472.
With ACCGGAUGUGCUUUCCGGUCUGAUGAAUCCGUGAGGACGAAACAC [G27A G45C], the self-cleavage worked out at 0.378.
Turning to ACCGGAUGUGCUUUCCGGUCUGAUGAAUCCGUGAGGACGAAACAA [G27A G45A], the self-cleavage was 0.416.
The same measure for ACCGGAUGUGCUUUCCGGUCUGAUGAAUCCGUGAGGAGGAAACAG [G27A C38G]: 0.623; for ACCGGAUGUGCUUUCCGGUCUGAUGAAUCCGUGAGGAAGAAACAG [G27A C38A]: 0.871.
On to ACCGGAUGUGCUUUCCGGUCUGAUGAAUCCGUGAGGAUGAAACAG [G27A C38U], for which the self-cleavage came out at 0.965.
